This note sets out measurements from PMC2894018 (2010).

Assay [1] concerns the target HIV-1 Gag fused to the N- or C-terminal fragment of Venus (HIV-1). As to the kind of experiment: split reporter (BiFC, NanoBiT); Venus BiFC in HeLa cells cotransfected with VN and VC fusion plasmids; thirty-six to forty hours after transfection, fixed; percent BiFC positive cells by flow cytometry and fluorescence microscopy.
Assay [2] shares this target. As to the kind of experiment: split reporter (BiFC, NanoBiT); Venus BiFC in 293T cells cotransfected with VC and VN chimeric Vpr and Gag plasmids; fixed thirty-six hours after transfection; percent BiFC positive cells by flow cytometry.
Assay [3] deals with HIV-1 Vpr Δ44 fused to the N- or C-terminal fragment of Venus (UniProt P12520). The assay is described as follows: BiFC (bimolecular fluorescence complementation), flow cytometry on cells. The note with it: cells cotransfected with VC and VN fusions of the same Vpr mutant; vector control 0.1; parent: 35.7.
The target of assay [4] is T1, HIV-1 Vpr from NL43 (Vpr^wt) fused to the N- or C-terminal fragment of Venus (HIV-1 (NL43)), P12520.
T1 chain: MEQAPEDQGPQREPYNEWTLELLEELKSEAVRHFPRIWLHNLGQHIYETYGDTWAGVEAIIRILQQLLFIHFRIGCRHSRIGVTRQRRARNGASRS
The assay is described as follows: split reporter (BiFC, NanoBiT); Venus BiFC in HeLa cells cotransfected with VN and VC fusion plasmids; thirty-six to forty hours after transfection, fixed; percent BiFC positive cells by flow cytometry and fluorescence microscopy. The note with it: remark: other sources report otherwise.

Assay [5] deals with T1, HIV-1 Vpr from NL43 (Vpr^wt) fused to …. The assay is described as above. The conditions noted are these: remark: other sources report otherwise.
The target is the same in assay [6]. The assay is described as follows: split reporter (BiFC, NanoBiT); Venus BiFC competition: VC-Vpr and VN-Vpr plasmids cotransfected with increasing amounts of untagged Vpr plasmid or empty vector; flow cytometry thirty-six hours after transfection; BiFC positive cells with vector backbone set as 100%. The note with it: remark: other sources report otherwise.

Some results are limits rather than exact numbers.

Turning to “HIV-1 Vpr from NL43 (Vpr^wt) fused to the N- or C-terminal fragment of Venus (from UniProt P12520 1-96) (natural protein)”, in assay [1], the percent fluorescent positive cells (venus-C-Gag and venus-N-Vpr^wt) was 29%; the percent fluorescent positive cells (venus-N-Gag and venus-C-Vpr^wt) amounted to 34%. In assay [2], the percent BiFC positive cells (with VC-Gag) stood at 27% and the percent BiFC positive cells (with VN-Gag) turned out to be 31%.
“HIV-1 Vpr from NL43 (Vpr^wt) fused to the N- or C-terminal fragment of Venus (from UniProt P12520) 44del”: in assay [3], the response (% BiFC positive cells) was found to be 1.
In assay [2], “HIV-1 Vpr E48A fused to the N- or C-terminal fragment of Venus (from UniProt P12520 1-96) (natural protein)” returned a percent BiFC positive cells (with VC-Gag) of 28% and a percent BiFC positive cells (with VN-Gag) of 29%.
Take “HIV-1 Vpr R80A fused to the N- or C-terminal fragment of Venus (from UniProt P12520 1-96) (natural protein)”: in assay [2], the percent BiFC positive cells (with VC-Gag) is 27% and the percent BiFC positive cells (with VN-Gag) stood at 33%.
“HIV-1 Gag fused to the N- or C-terminal fragment of Venus (natural protein)” returned a percent BiFC positive cells in assay [1] of 30%.

B1: HIV-1 Vpr from NL43 (Vpr^wt) fused to the N- or C-terminal fragment of Venus, P12520 1-96 (natural protein)
chain: T1 chain
In the case of B1, the percent BiFC positive cells in assay [4] came to 26%; in assay [5], 35%.

B2: untagged HIV-1 Vpr (expressed from pVpr), P12520 1-96 (natural protein)
chain: T1 chain
As to B2, in assay [6], the percent BiFC positive cells left (VC-Vpr with VN-Vpr, vector backbone as 100%) at a ratio of 1:10 is under 20% and the percent reduction of BiFC positive cells (VC-Vpr with VN-Vpr) at a ratio of 1:2.5 came to 40%.
